Laboratory results: PMC5105194
Values belong to the substance of their own block, whether it stands above or below them.

Legend:
[1] = molecular target: AlexaFluor488-labelled Rab7-GMPPNP (aa 1–186-Cys and Cys143Ser) (UniProt P51149); assay: fluorescence polarisation; fluorescence anisotropy, direct binding: proteins titrated into 50 nM AlexaFluor488-labelled Rab7-GMPPNP; 20 °C; 20 mM Tris pH 8.0, 100 mM NaCl, 2 mM MgCl2, 5 mM βME; single-site 1:1 model
TBC1d5^TBC/CSC complex = TBC1d5^TBC/CSC complex (UniProt Q96QK1); assay: fluorescence polarisation; fluorescence anisotropy, competition: unlabelled Rab7-GMPPNP titrated into 8 μM TBC1d5/CSC and 50 nM labelled Rab7-GMPPNP; 20 °C; competitive binding one-site model
[2] = molecular target: retromer cargo selective complex VPS26/VPS29/VPS35 (UniProt Q96QK1); assay: ITC; TBC proteins (100∼200 μM) injected into retromer proteins (8–16 μM); 20 °C; 20 mM Tris pH 8, 200 mM NaCl, 5 mM βME; one set of sites model

Sequence of TBC1d5^TBC (Q92609 whole entry, the tested form may be a part): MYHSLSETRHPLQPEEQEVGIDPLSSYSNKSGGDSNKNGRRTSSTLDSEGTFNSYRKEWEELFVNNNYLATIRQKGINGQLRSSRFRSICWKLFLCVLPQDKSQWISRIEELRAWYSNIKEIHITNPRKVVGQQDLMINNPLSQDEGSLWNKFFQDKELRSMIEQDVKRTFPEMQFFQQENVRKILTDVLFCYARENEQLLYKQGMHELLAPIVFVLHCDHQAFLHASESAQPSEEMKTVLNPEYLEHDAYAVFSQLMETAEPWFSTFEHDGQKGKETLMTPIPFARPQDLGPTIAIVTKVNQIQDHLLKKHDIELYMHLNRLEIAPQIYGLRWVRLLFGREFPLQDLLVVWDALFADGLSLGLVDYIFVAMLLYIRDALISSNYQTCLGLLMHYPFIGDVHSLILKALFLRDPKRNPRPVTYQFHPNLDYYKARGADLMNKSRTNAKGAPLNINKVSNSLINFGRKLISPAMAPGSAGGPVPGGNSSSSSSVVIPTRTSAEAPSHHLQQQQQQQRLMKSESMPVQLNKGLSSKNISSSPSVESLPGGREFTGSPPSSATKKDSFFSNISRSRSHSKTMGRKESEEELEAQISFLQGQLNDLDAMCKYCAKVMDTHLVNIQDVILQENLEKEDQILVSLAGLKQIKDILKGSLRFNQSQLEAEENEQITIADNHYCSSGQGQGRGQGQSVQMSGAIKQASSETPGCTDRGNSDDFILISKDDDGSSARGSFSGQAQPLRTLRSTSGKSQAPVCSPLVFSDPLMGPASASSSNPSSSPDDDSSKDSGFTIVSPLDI
Sequence of AlexaFluor488-labelled Rab7-GMPPNP (aa 1–186-Cys and Cys143Ser) (P51149 other isoform, or with tags, fused parts or gaps C143S): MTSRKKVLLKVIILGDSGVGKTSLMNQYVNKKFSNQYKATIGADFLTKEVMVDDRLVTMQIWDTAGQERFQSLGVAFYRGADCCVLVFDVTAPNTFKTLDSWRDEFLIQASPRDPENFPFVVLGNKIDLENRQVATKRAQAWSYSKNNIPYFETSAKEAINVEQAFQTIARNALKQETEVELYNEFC

Kd [1]: 11.5 µM
Substance: TBC1d5^TBC/CSC complex (from UniProt Q96QK1 1-796; Q9UBQ0 1-182; O75436 1-327)

Kd (TBC1d5^TBC/CSC complex): 36 µM
Substance: unlabelled Rab7-GMPPNP (from UniProt P51149 1-86) (natural protein)

Kd [2]: 0.22 µM | stoichiometry N [2]: 1
Substance: TBC1d5^TBC (from UniProt Q92609 1-795) (domain or fragment)
